# Experimental data as given in patent US20210130436A1 (published 2021).
# Where a chain is given by its changes, count along the chain named. Names may count otherwise.
# B1: wild-type CD80 IgV-Fc (inert) with GSG4S linker, Example 16 (Fc fusion)
# chain: VIHVTKEVKEVATLSCGHNVSVEELAQTRIYWQKEKKMVLTMMSGDMNIWPEYKNRTIFDITNNLSIVILALRPSDEGTYECVVLKYEKDAFKREHLAEVTLSVKADGSGGGGSEPKSSDKTHTCPPCPAPEAEGAPSVFLFPPKPKDTLMISRTPEVTCVVVDVSHEDPEVKFNWYVDGVEVHNAKTKPREEQYNSTYRVVSVLTVLHQDWLNGKEYKCKVSNKALPAPIEKTISKAKGQPREPQVYTLPPSREEMTKNQVSLTCLVKGFYPSDIAVEWESNGQPENNYKTTPPVLDSDGSFFLYSKLTVDKSRWQQGNVFSCSVMHEALHNHYTQKSLSLSPG
# notes: also called CD80 WT IgV-Fc
# B2: CD80 E35D/D46V/M47L/V68M/L85Q/E88D IgV-Fc, GS(G4S)5 linker (Fc fusion, not shown: a dimerising Fc or GST)
# chain: VIHVTKEVKEVATLSCGHNVSVEELAQTRIYWQKDKKMVLTMMSGVLNIWPEYKNRTIFDITNNLSIMILALRPSDEGTYECVVQKYDKDAFKREHLAEVTLSVKADGSGGGGSGGGGSGGGGSGGGGSGGGGS
# B3: CD80 E35D/M47V/N48K/V68M/K89N IgV-Fc, delta linker (Fc fusion)
# chain: VIHVTKEVKEVATLSCGHNVSVEELAQTRIYWQKDKKMVLTMMSGDVKIWPEYKNRTIFDITNNLSIMILALRPSDEGTYECVVLKYENDAFKREHLAEVTLSVKTHTCPPCPAPEAEGAPSVFLFPPKPKDTLMISRTPEVTCVVVDVSHEDPEVKFNWYVDGVEVHNAKTKPREEQYNSTYRVVSVLTVLHQDWLNGKEYKCKVSNKALPAPIEKTISKAKGQPREPQVYTLPPSREEMTKNQVSLTCLVKGFYPSDIAVEWESNGQPENNYKTTPPVLDSDGSFFLYSKLTVDKSRWQQGNVFSCSVMHEALHNHYTQKSLSLSPG
# notes: Fused directly to the Fc with no additional linker; also called E35D/M47V/N48K/V68M/K89N delta
# B4: CD80 E35D/D46V/M47L/V68M/L85Q/E88D IgV-Fc, delta linker (Fc fusion)
# chain: B3 chain with D46V, V47L, K48N, L85Q, E88D, N89K
# notes: Fused directly to the Fc with no additional linker; also called E35D/D46V/M47L/V68M/L85Q/E88D delta
# B5: CD80 E35D/D46V/M47L/V68M/L85Q/E88D IgV-Fc, (EAAAK)3 linker (Fc fusion, not shown: a dimerising Fc or GST)
# chain: VIHVTKEVKEVATLSCGHNVSVEELAQTRIYWQKDKKMVLTMMSGVLNIWPEYKNRTIFDITNNLSIMILALRPSDEGTYECVVQKYDKDAFKREHLAEVTLSVKADEAAAKEAAAKEAAAK
# B6: CD80 E35D/M47V/N48K/V68M/K89N IgV-Fc, EAAAK linker (Fc fusion, not shown: a dimerising Fc or GST)
# chain: VIHVTKEVKEVATLSCGHNVSVEELAQTRIYWQKDKKMVLTMMSGDVKIWPEYKNRTIFDITNNLSIMILALRPSDEGTYECVVLKYENDAFKREHLAEVTLSVKADEAAAK
# B7: CD80 E35D/D46V/M47L/V68M/L85Q/E88D IgV-Fc, EAAAK linker (Fc fusion, not shown: a dimerising Fc or GST)
# chain: B6 chain with D46V, V47L, K48N, L85Q, E88D, N89K
# B8: variant CD80 IgV-Fc E35D/M42V/M47V/E52D/L85Q (Fc fusion, not shown: small tags and cut ends; a dimerising Fc or GST)
# chain: VIHVTKEVKEVATLSCGHNVSVEELAQTRIYWQKDKKMVLTVMSGDVNIWPDYKNRTIFDITNNLSIVILALRPSDEGTYECVVQKYEKDAFKREHLAEVTLSVKAD
# notes: Fc fusion of the variant IgV
# B9: variant CD80 IgV-Fc M47L/V68M/A71G/D90G (Fc fusion, not shown: small tags and cut ends; a dimerising Fc or GST)
# chain: B8 chain with D35E, V42M, V47L, D52E, V68M, A71G, Q85L, D90G
# B10: variant CD80 IgV-Fc H18Y/A26E/A71G/D90G (Fc fusion, not shown: small tags and cut ends; a dimerising Fc or GST)
# chain: B8 chain with H18Y, A26E, D35E, V42M, V47M, D52E, A71G, Q85L, D90G
# B11: WT CD80 ECD-Fc (R&D) (Fc fusion)
# chain: VIHVTKEVKEVATLSCGHNVSVEELAQTRIYWQKEKKMVLTMMSGDMNIWPEYKNRTIFDITNNLSIVILALRPSDEGTYECVVLKYEKDAFKREHLAEVTLSVKADFPTPSISDFEIPTSNIRRIICSTSGGFPEPHLSWLENGEELNAINTTVSQDPETELYAVSSKLDFNMTTNHSFMCLIKYGHLRVNQTFNWNTTKQEHFPDN
# notes: Bought from R&D Systems; also called unmodified CD80-ECD-Fc fusion molecule (R&D Systems, USA); wild-type CD80-ECD-Fc; not shown: Fc and any linker of the bought R&D Systems protein are not described
# B12: variant CD80 IgV-Fc H18Y/A26E/E35D/D90G (Fc fusion, not shown: small tags and cut ends; a dimerising Fc or GST)
# chain: B8 chain with H18Y, A26E, V42M, V47M, D52E, Q85L, D90G
# Molecular target: T1, human PD-L1 (human, UniProt Q9NZQ7 19-290)
# T1 construct: also called huPD-L1; CD274
# Experiment: flow cytometry on CHO cells stably expressing PD-L1
row,Binder,MFI at 33.3 nM
1,B1,47 MFI
2,B2,22400 MFI
3,B3,20400 MFI
4,B4,22500 MFI
5,B5,25500 MFI
6,B6,22900 MFI
7,B7,24800 MFI

# Molecular target: T2, human CTLA-4 (CTLA4), expressed on CHO cells (human, UniProt P16410 36-223)
# T2 construct: Full-length surface expression construct transduced by lentivirus into CHO cells; also called huCTLA4
# T2 sequence (P16410 36-223): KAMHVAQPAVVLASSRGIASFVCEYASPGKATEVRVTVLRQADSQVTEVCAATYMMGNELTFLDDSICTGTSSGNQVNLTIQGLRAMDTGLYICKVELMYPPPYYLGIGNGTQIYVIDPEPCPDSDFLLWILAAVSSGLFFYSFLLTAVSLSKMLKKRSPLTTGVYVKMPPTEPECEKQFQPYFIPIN
# Experiment: flow cytometry on CHO cells stably expressing human CTLA-4; PE anti-human Fc
row,Binder,MFI at 33.3 nM
1,B8,226000 MFI

# Molecular target: human CD28 (human, UniProt P10747 19-220)
# Experiment: flow cytometry, Jurkat/IL2 reporter cells (endogenous CD28)
row,Binder,MFI at 33.3 nM
1,B9,3610 MFI
2,B10,2000 MFI

# Molecular target: T3, human PD-L1, expressed on CHO cells (human, UniProt Q9NZQ7 19-290)
# T3 construct: Full-length surface expression construct transduced by lentivirus into CHO cells; also called huPD-L1; CD274
# T3 sequence (Q9NZQ7 19-290): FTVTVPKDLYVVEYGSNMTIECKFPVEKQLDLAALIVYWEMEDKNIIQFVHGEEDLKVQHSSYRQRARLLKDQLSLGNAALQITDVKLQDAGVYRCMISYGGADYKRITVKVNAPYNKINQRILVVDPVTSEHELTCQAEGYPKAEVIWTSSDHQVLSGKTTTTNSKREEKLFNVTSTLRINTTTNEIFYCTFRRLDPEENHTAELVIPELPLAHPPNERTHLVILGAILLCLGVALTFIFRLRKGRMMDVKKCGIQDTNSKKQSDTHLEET
# Experiment: flow cytometry on CHO cells stably expressing human PD-L1; MFI relative to WT CD80 ECD-Fc (R&D)
row,Binder,Fold change to WT CD80
1,B8,1 fold

# Molecular target: T1, human PD-L1
# Experiment: flow cytometry; PD-L1 MFI over CD28 MFI
# T1 sequence (Q9NZQ7 19-290): as above
row,Binder,Ratio of PDL1:CD28
1,B1,1 ratio
2,B2,157 ratio
3,B3,4 ratio
4,B4,5 ratio
5,B5,129 ratio
6,B6,9 ratio
7,B7,44 ratio

# Molecular target: T2, human CTLA-4 (CTLA4), expressed on CHO …
# Experiment: flow cytometry on CHO cells stably expressing human CTLA-4; MFI relative to WT CD80 ECD-Fc (R&D)
row,Binder,Fold change to WT CD80
1,B8,1.44 fold

# Molecular target: T4, human CTLA-4 (human, UniProt P16410 36-223)
# T4 construct: also called huCTLA4
# T4 sequence (P16410 36-223): as the sequence (P16410 36-223) above
# Experiment: flow cytometry on CHO cells stably expressing CTLA4
row,Binder,MFI at 33.3 nM
1,B1,1200 MFI
2,B2,26600 MFI
3,B3,3090 MFI
4,B4,12200 MFI
5,B5,32000 MFI
6,B6,27500 MFI
7,B7,29000 MFI

# Molecular target: T5, CD28, endogenously expressed on Jurkat/IL2 reporter cells (human, UniProt P10747 19-220)
# T5 construct: Endogenous CD28 of Jurkat/IL2 reporter cells
# Experiment: flow cytometry on Jurkat/IL2 reporter cells (endogenous CD28); PE anti-human Fc
row,Binder,MFI at 33.3 nM
1,B11,18000 MFI

# Molecular target: T3, human PD-L1, expressed on CHO cells
# Experiment: flow cytometry; ratio of MFI on PD-L1 CHO cells to MFI on Jurkat (CD28) cells
row,Binder,Ratio of PDL1:CD28
1,B8,9 ratio

# Molecular target: T1, human PD-L1
# Experiment: flow cytometry on CHO cells stably expressing PD-L1; vs CD80 WT IgV-Fc
row,Binder,Fold change to WT CD80
1,B1,1 fold
2,B2,481 fold
3,B3,439 fold
4,B4,484 fold
5,B5,546 fold
6,B6,491 fold
7,B7,533 fold

# Molecular target: T6, human CTLA4 (human, UniProt P16410 36-223)
# T6 construct: also called huCTLA4
# T6 sequence (P16410 36-223): as above
# Experiment: flow cytometry, CHO cells expressing huCTLA4
row,Binder,MFI at 33.3 nM
1,B9,17400 MFI
2,B10,19900 MFI

# Molecular target: T4, human CTLA-4
# Experiment: flow cytometry on CHO cells stably expressing CTLA4; vs CD80 WT IgV-Fc
row,Binder,Fold change to WT CD80
1,B1,1 fold
2,B2,22.2 fold
3,B3,2.6 fold
4,B4,10.2 fold
5,B5,26.8 fold
6,B6,23 fold
7,B7,24.2 fold

# Molecular target: T3, human PD-L1, expressed on CHO cells
# Experiment: flow cytometry on CHO cells stably expressing human PD-L1; PE anti-human Fc
row,Binder,MFI at 33.3 nM
1,B8,11900 MFI

# Molecular target: T7, human CD28 (human, UniProt P10747 19-220)
# T7 construct: Endogenous CD28 on Jurkat/IL2 reporter cells
# Experiment: flow cytometry on Jurkat cells (CD28); vs CD80 WT IgV-Fc
row,Binder,Fold change to WT CD80
1,B1,1 fold
2,B2,2.6 fold
3,B3,83.7 fold
4,B4,74.7 fold
5,B5,3.5 fold
6,B6,47.1 fold
7,B7,10.1 fold

# Molecular target: T7, human CD28
# Experiment: flow cytometry on Jurkat cells (CD28)
row,Binder,MFI at 33.3 nM
1,B1,56 MFI
2,B2,143 MFI
3,B3,4680 MFI
4,B4,4170 MFI
5,B5,197 MFI
6,B6,2630 MFI
7,B7,563 MFI

# Molecular target: T8, human PD-L1 (human, UniProt Q9NZQ7 19-290)
# T8 construct: also called huPD-L1; CD274
# Experiment: flow cytometry, CHO cells expressing huPD-L1
# T8 sequence (Q9NZQ7 19-290): as the sequence (Q9NZQ7 19-290) above
row,Binder,MFI at 33.3 nM
1,B12,10000 MFI
2,B9,31100 MFI

# Molecular target: T1, human PD-L1
# Experiment: cell-based or functional assay
Binder,"Fold Increase over WT CD80-IgV-Fc, Jurkat/IL2 + CHO/OKT3/PD-L1 Reporter Assay","RLU, Jurkat/IL2 + CHO/OKT3/PD-L1 Reporter Assay, CD80 Conc 5.0 nM"
B1,1 fold,390 RLU
B2,5.26 fold,2050 RLU
B3,2.63 fold,1030 RLU
B4,2.77 fold,1080 RLU
B5,5.25 fold,2050 RLU
B6,4.38 fold,1710 RLU
B7,3.75 fold,1460 RLU
